# In IntAct's records for PubMed 19490898:
# B1: Ras-related protein Rab-9A (Canis familiaris (dog)), P24408 (parent)
# chain: MAGKSSLFKVILLGDGGVGKSSLMNRYVTNKFDTQLFHTIGVEFLNKDLEVDGHFVTMQIWDTAGQERFRSLRTPFYRGSDCCLLTFSVDDSQSFQNLSNWKKEFIYYADVKEPESFPFVILGNKIDISERQVSTEEAQAWCRDNGDYPYFETSAKDATNVAAAFEEAVRRVLATEDRSDHLIQTDTVSLHRKPKPSSSCC
# Variants of: B1
# Conditions: with rhbt3_human RHOBTB3, O94955
# Sequence of rhbt3_human RHOBTB3, O94955 (O94955 whole entry): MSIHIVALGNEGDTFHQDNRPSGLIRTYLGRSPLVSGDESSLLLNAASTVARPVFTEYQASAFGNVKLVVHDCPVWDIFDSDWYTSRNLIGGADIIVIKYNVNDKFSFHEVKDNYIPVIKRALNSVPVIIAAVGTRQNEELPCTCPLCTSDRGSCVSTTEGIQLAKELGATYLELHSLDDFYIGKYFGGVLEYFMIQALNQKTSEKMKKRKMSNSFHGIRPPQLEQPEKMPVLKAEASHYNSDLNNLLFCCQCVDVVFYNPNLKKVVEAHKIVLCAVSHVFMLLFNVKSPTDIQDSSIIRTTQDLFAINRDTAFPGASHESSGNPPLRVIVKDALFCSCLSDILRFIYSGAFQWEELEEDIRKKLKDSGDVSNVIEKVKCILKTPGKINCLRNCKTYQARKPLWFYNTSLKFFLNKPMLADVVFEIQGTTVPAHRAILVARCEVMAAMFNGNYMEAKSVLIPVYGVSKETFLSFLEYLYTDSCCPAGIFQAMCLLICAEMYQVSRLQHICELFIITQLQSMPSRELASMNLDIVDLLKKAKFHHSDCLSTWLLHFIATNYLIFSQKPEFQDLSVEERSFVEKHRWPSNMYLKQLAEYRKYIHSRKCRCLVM
row,effect of a mutation on the interaction,Variant
1,decreasing interaction,S21N
